Results taken from the RNAGym collection of RNA variant scans (doi:10.7554/elife.80360).

B1: CPEB3 Ribozyme (parent)
chain: GGGGGCCACAGCAGAAGCGUUCACGUCGCGGCCCCUGUCAGAUUCUGGUGAAUCUGCGAAUUCUGCUGU

Variants of: B1
Assay: self-cleavage, relative activity (ratio to wild type); higher = more cleavage; co-transcriptional

Variant | self-cleavage
GGGGGCCACAACAGAAGCGUUCACGUCGCGGCCCCUGUCAGAUUCUGAUGAAUCUGCGAAUUCUGCUGU | 0.906
GGGGGCCACAACAGAAGCGUUCACGUCGCGACCCCUGUCAGAUUCUGGUGAAUCUGCGAAUUCUGCUGU | 0.838
GGGGGCCACAACAGAAGCGUUCACGUCGCGGCCGCUGUCAGAUUCUGGUGAAUCUGCGAAUUCUGCUGU | 0.695
GGGGGCCACAACAGAAGCGUUCACGUCGCGGCCACUGUCAGAUUCUGGUGAAUCUGCGAAUUCUGCUGU | 0.715
GGGGGCCACAACAGAAGCGUUCACGUUGCGGCCCCUGUCAGAUUCUGGUGAAUCUGCGAAUUCUGCUGU | 0.107
GGGGGCCACAACAGAAGCGUUCACGUAGCGGCCCCUGUCAGAUUCUGGUGAAUCUGCGAAUUCUGCUGU | 0.2
GGGGGCCACAACAGAAGCGUUCACGUGGCGGCCCCUGUCAGAUUCUGGUGAAUCUGCGAAUUCUGCUGU | 0.139
GGGGGCCACAACAGAAGCGAUCACGUCGCGGCCCCUGUCAGAUUCUGGUGAAUCUGCGAAUUCUGCUGU | 0.157
GGGGGCCACAAUAGAAGCGUUCACGUCGCGGCCCCUGUCAGAUUCUGGUGAAUCUGCGAAUUCUGCUGU | 0.549
GGGGGCCACAACAGAAGCGUUCACGUCGCGGCCCCUGUCAGAUUCUGGUGAAUCUGCGAAUUCUCCUGU | 0.557
GGGGGCCACAACAGAAGCGUUCACAUCGCGGCCCCUGUCAGAUUCUGGUGAAUCUGCGAAUUCUGCUGU | 0.126
GGGGGCCACAACAUAAGCGUUCACGUCGCGGCCCCUGUCAGAUUCUGGUGAAUCUGCGAAUUCUGCUGU | 0.126
GGGGGCCACAACAGAAGCGUUCACGUCGCGGCCCCUGUCAGAUUCUGGUGAAUCUGCGAAUUUUGCUGU | 0.707
GGGGGCCACAACAGCAGCGUUCACGUCGCGGCCCCUGUCAGAUUCUGGUGAAUCUGCGAAUUCUGCUGU | 0.849
GGGGGCCACAACAGAAGCGUUCACGUCGCGGCCCCUGUCAGAUUCUGGUGAGUCUGCGAAUUCUGCUGU | 0.928
GGGGGCCACAACAGAAGCGUUCACGCCGCGGCCCCUGUCAGAUUCUGGUGAAUCUGCGAAUUCUGCUGU | 0.863
GGGGGCCACAACAGAAGCGUUCACGUCGCGGCCCGUGUCAGAUUCUGGUGAAUCUGCGAAUUCUGCUGU | 0.352
GGGGGCCACAACAGAAGCGUUCACGUCGCGGCCCCUGUCAGAUUCUGGUGAAUCUGCGAAUUCUGGUGU | 0.917
GGGGGCCACAACAGAAGCGUUCACGUCGCGGCCCCUGUCAGAUUCUGGUGAAUCUGCGAAUUCUGAUGU | 0.818
GGGGGCCACAACAGAAGCGUUCACGUCGCGGCCCCUGUCAGAUUCUGGUGAAUCUGCGGAUUCUGCUGU | 0.859

Variant | self-cleavage
GGGGGCCACAACAGAAGCGUUCACGUCGCGGCCCCUGUCAGAUUCUGGUGAAUCUGCGCAUUCUGCUGU | 0.3
GGGGGCCACAACAGAAGCGUUCACGUCGCGGCCCCUGUCAGAUUAUGGUGAAUCUGCGAAUUCUGCUGU | 0.821
GGGGGCCACAACAGAAGCGUUCACGUCGCGGCCCCUGUCAGAUUUUGGUGAAUCUGCGAAUUCUGCUGU | 0.906
GGGGGCCACAACAGAAGCGUUCACGUCGCGGCCCCUGUCAGAUUCUGGUGAAUCUGGGAAUUCUGCUGU | 0.262
GGGGGCCACAACAGAAGCGUUCACGUCGCGGCACCUGUCAGAUUCUGGUGAAUCUGCGAAUUCUGCUGU | 0.853
GGGGGCCACAACAGAAGCGUUCACGUCGCGGCCCCUGUCAGAUUCUGGUGCAUCUGCGAAUUCUGCUGU | 0.757
GGGGGCCACAACAGAAGCGUUCACGUCGCGGCCCCUGUCAGAUUCUGGUGAAUCUCCGAAUUCUGCUGU | 0.437
GGGGGCCACAACAGAAGCGUUCACGUCGCGGCCCCUGUCAGAUUCUGGUGAAUCUGCGACUUCUGCUGU | 0.205
GGGGGCCACAACAGAAGCAUUCACGUCGCGGCCCCUGUCAGAUUCUGGUGAAUCUGCGAAUUCUGCUGU | 0.103
GGGGGCCACAACAGAAGCGUUCACGUCGCGGCCCCUGUCAGAUUCUGGUAAAUCUGCGAAUUCUGCUGU | 0.852
GGGGGCCACAACAGAAGCGUUCACGUCGCGGUCCCUGUCAGAUUCUGGUGAAUCUGCGAAUUCUGCUGU | 0.95
GGGGGCCACAACAGAAGCGUUCACGUCACGGCCCCUGUCAGAUUCUGGUGAAUCUGCGAAUUCUGCUGU | 0.16
GGGGGCCACAACAGAAGCGUUCACGUCUCGGCCCCUGUCAGAUUCUGGUGAAUCUGCGAAUUCUGCUGU | 0.171
GGGGGCCACAACAGAAGCGUUCACGUCCCGGCCCCUGUCAGAUUCUGGUGAAUCUGCGAAUUCUGCUGU | 0.157
GGGGGCCACAACAGAAGCGUUCACGUCGCGGCCCCUUUCAGAUUCUGGUGAAUCUGCGAAUUCUGCUGU | 0.156
GGGGGCCACAACAGAAGCGUUGACGUCGCGGCCCCUGUCAGAUUCUGGUGAAUCUGCGAAUUCUGCUGU | 0.119
GGGGGCCACAACAGAAGCGUGCACGUCGCGGCCCCUGUCAGAUUCUGGUGAAUCUGCGAAUUCUGCUGU | 0.285
GGGGGCCACAACAGAAGCGUUCACGUCGCGGCCCCUGUCGGAUUCUGGUGAAUCUGCGAAUUCUGCUGU | 0.726
GGGGGCCACAACAGAAGCGUUCACGUCGCGGCCCCUGUCUGAUUCUGGUGAAUCUGCGAAUUCUGCUGU | 0.357
